Measured values published in patent US20250268980A1, “AN ANTICANCER THERAPY TARGETING RAS AND OTHER ONCOGENIC SIGNALS BY INHIBITION OF DYNAMIC BLEBBING AND/OR SEPTINS” (THE BOARD OF REGENTS OF THE UNIVERSITY OF TEXAS SYSTEM, priority 2022, published 2025).

What was measured:
All Septins [1] = experiment: HaloLink pulldown from unperturbed A375 cells, LC-MS/MS
All Septins [2] = experiment: HaloLink pulldown from MV3 cells, LC-MS/MS

- % of total protein abundance (All Septins [1]): 7.04%
- fold change between lysate and pulldown (% of total protein abundance) (All Septins [1]): 56 fold
- % of total protein abundance (All Septins [2]): 8.06%
- fold change between lysate and pulldown (% of total protein abundance) (All Septins [2]): 35.9 fold
B1: mouse SEPT6-HALO (protein, UniProt Q9R1T4 2-434, looked up, not shown: small tags and cut ends; large carriers)
chain: AAADIARQVGEDCRTVPLAGHVGFDSLPDQLVNKSVSQGFCFNILCVGETGLGKSTLMDTLFNTKFEGEPATHTQPGVQLQSNTYDLQESNVGLKLTIVSTVGFGDQINKEDSYKPIVEFIDAQFEAYLQEELKIRRVLHSYHDSRIHVCLYFIAPTGHSLKSLDLVTMKKLDSKVNIIPVIAKSDAISKSELAKFKIKITSELVSNGVQIYQFPTDDESVSEINGTMNAHLPFAVVGSTEEVKIGNKMMRARQYPWGTVQVENEAHCDFVKLREMLIRVNMEDLREQTHARHYELYRRCKLEEMGFKDTDPDSKPFSLQETYEAKRNEFLGELQKKEEEMRQMFVQRVKEKEAELKEAEKELHEKFDRLKKLHQEEKKKLEDKKKCLDEEMNAFKQRKAAAELLQSQGSQAGGSQTLKRDKEKKNNPWLCIE
